The term EC50 (read off the curve) denotes the concentration needed to bring the measured effect to its halfway point. The term EC50 denotes the midpoint of the concentration-response curve. Lower therefore signals greater potency.

Experimental findings from patent US20240082437A1 (Hoffmann-La Roche, published 2024) are described below.

In test [1] the target is T1, Carcinoembryonic antigen (CEA) (human, UniProt P06731 35-685).
T1 construct: whole, on cells; also called Carcinoembryonic antigen-related cell adhesion molecule 5; CEACAM5
T1 sequence (looked up): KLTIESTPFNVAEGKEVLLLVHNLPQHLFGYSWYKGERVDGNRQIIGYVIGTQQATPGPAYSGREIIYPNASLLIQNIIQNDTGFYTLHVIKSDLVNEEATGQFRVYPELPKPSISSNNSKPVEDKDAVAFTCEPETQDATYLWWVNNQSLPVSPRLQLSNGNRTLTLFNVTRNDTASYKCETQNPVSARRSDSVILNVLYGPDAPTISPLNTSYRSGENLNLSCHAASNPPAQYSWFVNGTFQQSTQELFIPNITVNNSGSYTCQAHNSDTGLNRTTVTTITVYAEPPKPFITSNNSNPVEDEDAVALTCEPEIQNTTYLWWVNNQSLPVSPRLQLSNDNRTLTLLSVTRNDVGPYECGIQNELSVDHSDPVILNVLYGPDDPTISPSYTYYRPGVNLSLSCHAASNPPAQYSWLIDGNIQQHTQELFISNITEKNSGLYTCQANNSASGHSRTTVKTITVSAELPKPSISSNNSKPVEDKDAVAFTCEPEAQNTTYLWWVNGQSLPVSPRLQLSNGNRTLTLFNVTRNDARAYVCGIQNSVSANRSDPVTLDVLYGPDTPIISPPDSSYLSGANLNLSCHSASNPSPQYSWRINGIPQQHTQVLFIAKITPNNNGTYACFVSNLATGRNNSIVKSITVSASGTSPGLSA
Nature of the test: flow cytometry on MKN45 cells (CEA), hemibody mixed 1:1 with human ISO control, detected with anti-human IgG(H+L) (FITC in the legend box, A488 in the title). For orientation: In flow cytometry, cells or beads pass a laser one at a time.
Protocol: To assess the functionality of the split antibodies or hemibodies, MKN-45 cells were detached from the culture vessel using accutase at 37° C. for 10 minutes. Subsequently, the cells were washed twice in PBS, and seeded into 96 well v-bottom plates to a final density of 4×10⁶ cells/well.
Subsequently, the cells were incubated for 1 h on ice and washed twice in PBS. The cell pellet was resuspended and 40 μl/well of detection reagent was added, either <human IgG(H+L)>FITC, (10 μg/ml) or Pb_Dotam_FITC 1:100=>(10 μg/ml) in PBS/5% FCS. After 60 min incubation on ice, the cells were washed twice in PBS and resuspended in 200 μl PBS/5% FCS for measurement of FITC fluorescence using a FACS canto.

Test [2] concerns the target T1, Carcinoembryonic antigen (CEA). The test is described as follows: FACS on MKN-45 cells, detection with anti-huIgG(H+L)-Alexa488. As for the experimental part: MKN-45 cells were detached from the culture bottle using Trypsin and were counted using a Casy cell counter. After pelleting at 4° C., 300 g the cells were resuspended in FACS Buffer (2.5% FCS in PBS), adjusted to 2.0E+06 cells/mL dispensed to 96-well PP V-bottom-Platte (25 μL/well=5.0E+04Zellen/well).
Both antibodies were added to the cells either separated followed by buffer or combined and incubated at 4° C. for 1 h. The cells were then washed twice in FACS buffer. After washing, the cells were resuspended in 50 μL FACS-buffer containing secondary antibody (<huIgG(H+L)>-Alexa488, c=10 μg/mL) and incubated 1 h at 4° C. The cells were then washed twice in FACS buffer and resuspended in 70 μl/well FACS buffer for measurement using a FACS Canto (BD, Pharmingen).

B1: P1AD8749 (antibody, human IgG1, kappa, L234A L235A)
heavy 1: QVQLVQSGAEVKKPGASVKVSCKASGYTFTEFGMNWVRQAPGQGLEWMGWINTKTGEATYVEEFKGRVTFTTDTSTSTAYMELRSLRSDDTAVYYCARWDFAYYVEAMDYWGQGTTVTVSSASTKGPSVFPLAPSSKSTSGGTAALGCLVKDYFPEPVTVSWNSGALTSGVHTFPAVLQSSGLYSLSSVVTVPSSSLGTQTYICNVNHKPSNTKVDKKVEPKSCDKTHTCPPCPAPEAAGGPSVFLFPPKPKDTLMISRTPEVTCVVVDVSHEDPEVKFNWYVDGVEVHNAKTKPREEQYNSTYRVVSVLTVLHQDWLNGKEYKCKVSNKALGAPIEKTISKAKGQPREPQVCTLPPSRDELTKNQVSLSCAVKGFYPSDIAVEWESNGQPENNYKTTPPVLDSDGSFFLVSKLTVDKSRWQQGNVFSCSVMHEALHNHYTQKSLSLSPG
heavy 2: not shown
light: DIQMTQSPSSLSASVGDRVTITCKASAAVGTYVAWYQQKPGKAPKLLIYSASYRKRGVPSRFSGSGSGTDFTLTISSLQPEDFATYYCHQYYTYPLFTFGQGTKLEIKRTVAAPSVFIFPPSDEQLKSGTASVVCLLNNFYPREAKVQWKVDNALQSGNSQESVTEQDSKDSTYSLSSTLTLSKADYEKHKVYACEVTHQGLSSPVTKSFNRGEC
notes: Split antibody (hemibody) with CH1A1A anti-CEA Fabs; also called CEA-split-DOTAM-VH; PRIT Split Antibody with DOTAM-VH
On to B1, for which the “EC50 (read off the curve)” value in test [1] was around 1 µg/mL.

B2: P1AF0713 (antibody)
heavy 1: B1 heavy 1
heavy 2: not shown
light: B1 light
notes: Split antibody with CH1A1A anti-CEA Fabs; Both heavy chains carry VH-CH1; also called CEA specific SPLIT antibody (DOTA-VH-AST); P6_B
In turn, B2 came in with an EC50 in test [2] of 2.3 µg/mL.

B3: P1AF0712 (antibody)
heavy 1: not shown
heavy 2: QVQLVQSGAEVKKPGASVKVSCKASGYTFTEFGMNWVRQAPGQGLEWMGWINTKTGEATYVEEFKGRVTFTTDTSTSTAYMELRSLRSDDTAVYYCARWDFAYYVEAMDYWGQGTTVTVSSASTKGPSVFPLAPSSKSTSGGTAALGCLVKDYFPEPVTVSWNSGALTSGVHTFPAVLQSSGLYSLSSVVTVPSSSLGTQTYICNVNHKPSNTKVDKKVEPKSCDKTHTCPPCPAPEAAGGPSVFLFPPKPKDTLMISRTPEVTCVVVDVSHEDPEVKFNWYVDGVEVHNAKTKPREEQYNSTYRVVSVLTVLHQDWLNGKEYKCKVSNKALGAPIEKTISKAKGQPREPQVCTLPPSRDELTKNQVSLSCAVKGFYPSDIAVEWESNGQPENNYKTTPPVLDSDGSFFLVSKLTVDKSRWQQGNVFSCSVMHEALHNHYTQKSLSLSPGGGGGSGGGGSGGGGSGGGGSQAVVIQESALTTPPGETVTLTCGSSTGAVTASNYANWVQEKPDHLFTGLIGGHNNRPPGVPARFSGSLIGDKAALTIAGTQTEDEAIYFCALWYSDHWVIGGGTKLTVL
light: B1 light
notes: Split antibody with CH1A1A anti-CEA Fabs; Both heavy chains carry VH-CH1; also called CEA specific SPLIT antibody (DOTA-VL); P6_A
B3: in test [2], the EC50 was found to be 2.7 µg/mL.
